Numbering of substitutions follows the chain as printed.
B1: PRT-531 (protein)
chain: MANQEIRYSEDTPSHITSVWTKGVTPPTQFIQNEDVLHAPYIANQGWYDITKTFNGKDDLLCGAATAGNMLHWWFDQNKEQIEAYLKKYPEKQKINFNGEQMFDVKEAIDTKDSQTDSALFNYFRDKAFPNLSTKHLGVMPDHVIDMFINGYRLNLGNHGPTPVKNQTKDLRGGIFDAVFTRGDQSKLLTARHDFKEKTLKEISQLIKQELTEGKALALSHTYANVRINHVINLWGADFNAEGNLEAIYVTDSDSNASIGMKKYYVGVNAAGKVAISAKEIEGDNIGAQVLGLFTLSSGQDIWQQTNLEHHHHHH
B2: PRT-645 (protein)
chain: MQITSVWTKGVTPLTPEQFRYNNEDVIHAPYLAHQGWYDITKAFDGKDNLLCGAATAGNMLHWWFDQNKTEIEAYLSKHPEKQKIIFNNQELFDLKAAIDTKDSQTNSQLFNYFRDKAFPNLSARQLGVMPDLVLDMFINGYYLNVFKTQSTDVNRPYQDKDKRGGIFDAVFTRGDQTTLLTARHDLKNKGLNDISTIIKQELTEGRALALSHTYANVSISHVINLWGADFNAEGNLEAIYVTDSDANASIGMKKYYVGYNKSGRVAISAYKITDENIGAQVLGLFTLSSGKDIWQKLSLEHHHHHH
B3: PRT-638 (protein)
chain: MQITSVWTKGVTPLTPEQFRYNNEDVIHAPYLAHQGWYDITKLNDTGDGLLCGAATAGNMLHWWFDQNKTEIEAYLSKHPEKQKIIFNNQELFDLKAAIDTKDSQTNSQLFNYFRDKAFPNLSARQKGVMPDLVLDMFINGYYLNVFKTQSTDVNRPYQDKDKRGGIFDAVFTRGDQTTLLTARHDLKNKGLNDISTIIKQELTEGRALALSHTYANVSISHVINLWGADFNAEGNLEAIYVTDSNAGNGIGMKKYFVGINAHGHVAISAKKIEGENIGAQVLGLFTLSSGKDIWQKLSLEHHHHHH
B4: PRT-680 (protein)
chain: MQITSVWTKGVTPLTPEQFRYNNEDVIHAPYLPHQGWYDITKAFDGKDNLLCGAATAGNMLHWWFDQNKTEIEAYLSKHPEKQKIIFNNQELFDLRAAINTKDSQTNSALFNYFRDKAFPNLSARQLGVMPDLVLDMFINGYYLNVFKTQSTDVNRPYQDKDKRGGIFDAVFTRGDQTTLLTARHDLKNKGLNDISTIIKQELTEGKALALSHTYANVSISHVINLWGADFNAEGNLEAIYVTDSDANASIGMKKYYVGINAHGHVAISAKKIEGENIGAQVLGLFTLSSGKDIWQKLSLEHHHHHH
B5: PRT-631 (protein)
chain: MQITSVWTKGVTPLTPEQFRYNNEDVIHAPYLAHQGWYDITKAFDGKDNLLCGAATAGNMLHWWFDQNKEEIDNYLKKYPDKQKIIFNNQELFDLKAAIDTKDSQTNSQLFNYFRDKAFPNLSARQLGVMPDLVLDMFINGYYLNVFKTQSTDVNRPYQDKDKRGGIFDAVFTRGDQTTLLTARHDLKNKGLNDISTIIKQELTEGRALALSHTYANVSISHVINLWGADFNAEGNLEAIYVTDSDANASIGMKKYFVGINAHGHVAISAKKIEGENIGAQVLGLFTLSSGKEIWKKLSLEHHHHHH
B6: PRT-613 (protein)
chain: MQITTVWTKGVTPLTPEQFRYNNEDVIHAPYLAHQGWYDITKAFDGKDNLLCGAATAGNMLHWWFDQNKTEIEAYLSKHPEKQKIIFNNQELFDLKAAISTKDSQTNSQLFNYFRDKAFPNLSARQLGVMPDLVLDMFINGYYLNVFKTQSTDVNRPYQDKDKRGGIFDDVFTRGDQTTLLTARHDLKNGGLNDISTIIKQELTNGRALALSHTYANVSISHVINLWGADFNAEGNLEAIYVTDSDANARIGMKKYGVGINAHGHVAISAKKIEGENIGAQVLGLFTLSSGKDIWQKLSLEHHHHHH
B7: PRT-604 (protein)
chain: B6 chain with T5S, S100D, T173G, R174K, G190K, N205E, R250S, G257F
B8: PRT-626 (protein)
chain: B4 chain with P33A, R96K, N100D, A109Q, Y158P, Q159D, A170H, T173N, K207R, Y257F
B9: PRT-695 (protein)
chain: MTITTVWTKGVTPPTPEDFRYNNEDVLHAPYVPNQGWYDITKTFDGKDNLLCGAATAGNMLHWWFDQNKEEIERYLKKYPEKQKIIFNNQELFDVRAAINTKDSQTNSKLFNYFRDKAFPNLSARQLGVMPDLVLDMFINGYYLNLGKTQSTDVNRPYQDRDKRGGIFDAVFNRGDQTTLLTARHDLKNKGLNEISDLIKQELSSGKALALSHTYANVRINHVINLWGADFDAEGNLIAIYVTDSDANASIGMKKYYVGVNANGKVAISAKKIEGDNIGAQVLGLFTLSTGQDIWQKLSLEHHHHHH
B10: PRT-649 (protein)
chain: MQITSVWTKGVTPLTPEQFRYNNEDVIHAPYLAHQGWYDITKAFDGKDNLLCGAATAGNMLHWWFDQNKTEIEAYLSKHPEKQKIIFNNQYLFDLKAAIDTKDSQTNSQLFNYFRDKAFGNLSARQLGVMPDLVLDMFINGYKLKVNKTQSTDVNRPYQKPDNFGGIFDAVFTRGDQTTLLTARHDLKNKGLNDISTIIKQELTEGRALALSHTYANVSISHVINLWGADFNAEGNLEAIYVTDSDANASIGMKKYFVGINAHGHVAISAKKIEGENIGAQVLGLFTLSSGKDIWQKLSLEHHHHHH

Target: pooled human IgG (human IgG1,2,3 and 4)

Row | Protein | Enzyme activity endpoint: Fab′2 | Enzyme activity endpoint: Fc | Enzyme activity endpoint: IgG | Enzyme activity endpoint: scIgG
1 | B1 | 756 ng/µL | 212 ng/µL | 0 ng/µL | 0 ng/µL
2 | B2 | 683 ng/µL | 455 ng/µL | 0 ng/µL | 236 ng/µL
3 | B3 | 550 ng/µL | 10 ng/µL | 823 ng/µL | 17 ng/µL
4 | B4 | 752 ng/µL | 451 ng/µL | 0 ng/µL | 277 ng/µL
5 | B5 | 749 ng/µL | 419 ng/µL | 0 ng/µL | 0 ng/µL
6 | B6 | 686 ng/µL | 433 ng/µL | 15 ng/µL | 251 ng/µL
7 | B7 | 51 ng/µL | 276 ng/µL | 396 ng/µL | 964 ng/µL
8 | B8 | 569 ng/µL | 388 ng/µL | 0 ng/µL | 225 ng/µL
9 | B9 | 781 ng/µL | 433 ng/µL | 66 ng/µL | 0 ng/µL
10 | B10 | 657 ng/µL | 32 ng/µL | 886 ng/µL | 24 ng/µL
